Measured values reported in patent US20260070983A1 (Eli Lilly, published 2026).

Target: human PD-1-ECD-His (human)
Assay: SPR (Biacore), 37 °C

Chain of human PD-1-ECD-His (human) (chain, as listed by the source): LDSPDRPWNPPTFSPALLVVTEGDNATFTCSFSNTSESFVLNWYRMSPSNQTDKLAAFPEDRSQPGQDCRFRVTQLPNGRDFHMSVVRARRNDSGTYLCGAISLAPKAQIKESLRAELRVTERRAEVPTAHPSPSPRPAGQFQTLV

B1: peresolimab (antibody, V domains shown)
VH: QVQLVQSGAEVKKPGASVKVSCKVSGYSLSKYDMSWVRQAPGKGLEWMGIIYTSGYTDYAQKFQGRVTMTEDTSTDTAYMELSSLRSEDTAVYYCATGNPYYTNGFNSWGQGTLVTVSS
VL: DIQMTQSPSSLSASVGDRVTITCQASQSPNNLLAWYQQKPGKAPKLLIYGASDLPSGVPSRFSGSGSGTDFTLTISSLQPEDFATYYCQNNYYVGPVSYAFGGGTKVEIK
Kd: 2.29 nM | koff: 0.000701 s⁻¹ | kon: 307000 M⁻¹ s⁻¹
